According to patent publication US20160202245A1 (MERZ PHARMA, published 2016):

B1: mouse monoclonal antibody 20-2-5 (antibody, V domains shown)
VH: EVNLVESGGDLVKPGGSLKLSCAVSGFTFSGYAMSWVRQTPEKRLEWVASIATNGSTYYPDTVKGRFTIFRDNARNILYLQMSSLRSEDTAIYYCTRLRGFDNWGQGTTLTVSS
VL: DVLMTQIPLSLPVSLGDQASISCRSSQNIVHSNGNTYLEWYLQKSGQSPKLLIYKVFKRLSGVPDRFSGSGSGTDFTLRISRVEAEDLGVYYCFQGSHVPYTFGGGTKLEIK
B2: mouse monoclonal antibody 1-10-4 (antibody, V domains shown)
VH: EVKLVESGGDLVKPGGSLKLSCAVSGFSLNTYAMSWVRQTPEQRLEWVASISTNGSTYHSDSVKGRFTISRYNARNILYLQMSSLRSEDSAIYYCTRLRGFDYWGQGTTLTVSS
VL: DILMTQTPLSLSVSLGDQASISCRSSQNIVHSNGNTYLEWYLQKPGQSPKPLIYKLSKRFSGVPDRFSGSGSGTYFTLKISRVEAEDLGVYYCFQGSHVPYTFGGGTKLEIK
B3: mouse monoclonal antibody 16-5-4 (antibody, V domains shown)
VH: EVKLVESGGDLVKPGGSLKLSCAASGFTFNTYAMSWVRQTPEKRLEWVASISSNGSTYHPESVKGRFTISRDIARNILNLQMSSLRSEDTAIYYCSRLRGFDYWGQGTTLTVSS
VL: DVLMTQTPLSLPVSLGDQASISCRSSQSIVHSNGNTYLEWYLQKPGQSPKPLIYKVFKRFSGVPDRFSGSGSGTDFTLKISRVEAEDLGVYYCFQGSHVPYTFGGGTKLEIK
B4: mouse monoclonal antibody 18-3-3 (antibody, V domains shown)
VH: EVKLVESGGGLVKPGGSLKLSCAASGFTFRSYAVSWVRQTPEKRLEWVASISTNGSTYYPDSMKGRFTISRDTARNILYLEMNSLRSEDTAMYYCARLRGFDYWGQGTPLTVSS
VL: DVLMTQTPLSLPVSLGDQASISCRSSQSIVHSNGNTYLEWYLQKPGQSPKLLIYKVSKRFSGVPDRFSGSGSGTDFTLKITRVEAEDLGVYYCFQGSHVPYTFGGGTKLEIK
B5: mouse monoclonal antibody 6-3-8 (antibody, V domains shown)
VH: EVKLVEFGGGLVEPRGSLKLSCAASGFTFSTYAMSWVRQTPEKRLEWVASIASNGSTYYPDSVRGRFTISRDNARNILYLQMSSLRSEDTAMYYCSRLRGFDYWGQGSTLTVSS
VL: DVLMTQIPLSLPVSLGDQASISCRSSQSIVHSNGNTYLEWYLQKPGQSPSLLIYKVFKRLSGVPDRFSGSGSGTEFTLKINRVEAEDLGVYYCFQGSHVPYTFGGGTKLEIK
B6: mouse monoclonal antibody 14-12-1 (antibody, V domains shown)
VH: EVKLVESGGDLVKPGGSLKLSCAASGFTLSDYAMSWVRQSPEERLEWVASISTNGSTYYPDSVKGRFTISRDNARNILSLQMSSLRSEDTAIYYCTRLRGFDNWGQGTLLTVSS
VL: DVLMTQTPLSLPVSLGDQASISCRSSQNIVHSNGNTYLEWYLQKSGQSPKLLMYKVSKRLSGVPDRFSGRGSGTDFTLKISRVEAEDLGVYYCFQGSHVPYTFGGGTKLEIK
B7: mouse monoclonal antibody 5-10-5 (antibody, V domains shown)
VH: DVQLQESGPGLVKPSQSLSLTCTVTGFSITSDYAWNWIRQFPGNKLEWMGYISYKYGTRYNPSLKGRISITRDTSKNQFFLQLNSLTTEDTAIYYCARRGTDGYGFAYWGQGTLVTVSA
VL: DIVLTQSPASLGVSLGQRATISCRASESVSSSGYSYIHWYQQRPGQPPKLLIFLASNLESGVPARFSGSGSGTDFTLNIHPVEEEDAATYYCQHSRELPLTFGAGTKLELK

These binders were tested against T1, non-cleaved SNAP-25206 (UniProt P60880 1-206) (assay: ELISA and Western blots).
T1 construct: range 1-206

| Binder | binding result |
| --- | --- |
| B1 | no binding |
| B2 | no binding |
| B3 | no binding |
| B4 | no binding |
| B5 | no binding |
| B6 | no binding |
| B7 | no binding |
